Data from the supplement of paper PMC10567573.

B1: PLAGL1 (parent)
chain: CKDFLCQFCAQRFGRKDHLTRHTK

Variants of: B1
Experiment: protein stability index of a GFP-peptide fusion (GPS, HEK-293T) (PSI 1-6); higher = more stable
Settings: c terminus: a fixed tail appended
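Further: lentivirally expressed fusions sorted by FACS into six bins by GFP to DsRed ratio, PSI derived from sequencing read proportions per bin multiplied by bin number.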

Protein stability index: each site, then its substitutions
K16: H 2.39, F 2.17, L 2.49, D 2.35, N 1.92, Y 1.86, M 1.68, Q 2.62, S 1.95, R 2.44, G 2.15, P 2.25, C 2.53, E 1.93, I 2.37, W 2.33, T 2.82, V 2.05, A 2.67
F4: H 1.58, P 2.37, Q 2.34, R 2.4, G 2.02, M 2.21, S 2.23, K 2.41, I 1.54, T 2.35, L 1.41, E 2.56, D 1.76, V 1.27, N 2.64, Y 1.36
Q7: K 2.21, A 2.38, V 2.02, E 2.25, C 1.52, D 2.2, T 2.35, L 1.29, P 2.23, M 2.29, S 1.76, N 1.74, F 1.74, G 2.09, R 2.08, W 2.57, H 1.96, Y 2.06
A10: V 2.16, S 2.24, G 1.79, R 2.14, Y 2.16, W 1.67, M 1.65, K 2.48, Q 1.44, D 1.87, E 1.69, I 1.83, P 2.03, H 1.9, T 1.96, F 1.96, L 1.79, C 2.19, N 1.96
R21: G 2.02, C 2.01, D 2.37, E 2.48, P 2.1, L 2.1, M 1.97, V 1.59, N 2.53, T 1.77, H 1.87, K 2.27, S 1.3, Q 2.56, I 1.82, A 1.94
L5: T 1.81, P 2.87, A 2.02, F 2.56, S 2.41, Q 2.01, G 2.23, N 2.23, V 1.36, D 2.18, K 2.08, Y 1.82, I 1.69, C 1.41, E 2.07, M 1.9, R 1.43, W 1.93, H 1.89
T20: E 2.29, A 2.25, H 1.96, L 2.22, W 1.47, M 2.66, Y 1.82, S 2.17, G 2.17, C 3.02, K 2.35, F 1.83, D 1.72, N 2.01, I 1.58, Q 1.75, R 1.93, V 2.28, P 1.82
G14: L 1.96, R 2.12, P 2.46, E 2.78, N 2.46, A 2.63, F 1.79, I 2.08, Q 1.98, D 2.14, M 2.59, T 2.09, W 1.77, S 2.72, Y 1.99, C 2.37, V 1.99, K 2, H 2.13
H18: N 1.97, D 1.68, R 2.35, P 1.75, G 1.95, M 1.64, K 2.25, C 2.6, F 1.49, L 1.33, T 2.25, Y 2.45, I 2.07, Q 1.96, W 1.94, E 1.96, V 2.59, S 1.82, A 2.51
D17: V 1.64, L 2.03, P 2.4, N 2.04, Q 1.92, W 1.35, A 2.28, K 1.94, I 2.52, R 2.37, H 1.85, G 1.67, E 2.14, M 1.3, F 2.08, C 2.06, S 2.12, T 2.44, Y 1.7
L19: P 2.02, W 1.65, G 2.73, A 2.54, D 3.71, H 2.16, F 2.58, N 1.91, K 3.13, C 2.25, Q 2.48, T 3.32, I 2.32, M 2.4, R 2.39, V 1.99, Y 1.9, S 2.13, E 1.99
C6: N 1.76, M 1.48, F 1.78, V 1.89, I 1.62, E 2.63, L 1.99, R 1.41, K 1.4, Y 2.1, G 1.84, A 2.18, P 2.38, Q 2.34, T 2.04, H 2.25, S 1.58, D 2.17, W 1.78
F13: A 1.91, T 2.23, M 2.88, D 2.65, W 2.33, H 2.31, V 2.03, R 2.54, C 3.07, S 3.21, K 3.02, Y 1.99, P 2.35, Q 2.45, L 2.44, I 2.02, E 2.86, N 2.35
C9: N 2.58, P 3.17, G 2.14, S 2.03, V 2.46, I 2.56, A 2.05, F 1.11, L 2.22, E 2, M 1.79, T 1.93, Y 1.47, Q 2.72, R 1.45, W 2, D 2.11, K 2.42, H 2.11
Q11: V 2.04, W 1.76, H 1.67, L 2.29, A 1.84, I 1.82, M 2.22, S 3.17, K 2.02, R 2.3, F 1.82, Y 1.51, P 2.07, E 2.14, T 1.75, D 1.75, N 2.01, G 2.44, C 1.85
R15: N 1.83, H 1.85, W 1.61, L 2.06, A 1.82, C 1.82, G 2.36, D 2.24, E 2.52, Y 2.38, T 1.93, F 1.79, I 1.91, K 2.52, S 1.73, M 1.73, P 1.66, V 2.3, Q 1.74
R12: F 1.68, A 1.97, G 2.54, P 1.81, L 1.47, H 2.38, C 2.86, Y 2, V 2.33, I 2.6, E 2.13, S 2.16, K 3.04, D 1.65, N 2.22, W 2.14, M 1.94, Q 1.23, T 1.88
F8: R 3.32, K 2.69, E 2.62, M 2.19, L 2.89, C 3.64, H 2.87, S 2.19, N 2.82, P 2.47, V 2.18, I 1.93, G 2.32, A 2.94, Q 2.51, T 2.81, D 3.12, W 1.6, Y 1.77
